Measurements: publication PMC4823740
Where “and” joins values, the source holds several entries; their conditions need not be identical. Equal entries are not always repeated.

Columns and labels:
[1] = target: Aggregation Suppressing Protein A (AgsA) wild type, tagless (Salmonella enterica serovar typhimurium LT2); test: SEC-MALS; unseparated wild type protein; Superose 6 10/300, 20 mM Tris, 200 mM NaCl, pH 8.0; about 100 uL of 2 mg/mL injected
[2] = target: Aggregation Suppressing Protein A (AgsA) wild type, tagless (Salmonella enterica serovar typhimurium LT2); test: SEC-MALS; separated 18-mer fraction of the wild type after size exclusion chromatography; Superdex 200 10/300, 20 mM Tris, 50 mM NaCl, pH 7.5
[3] = target: Aggregation Suppressing Protein A (AgsA) wild type, tagless (Salmonella enterica serovar typhimurium LT2); test: SEC-MALS; separated 24-mer fraction of the wild type after size exclusion chromatography; Superdex 200 10/300, 20 mM Tris, 50 mM NaCl, pH 7.5
[4] = target: AgsA:DD, double deletion AgsA lacking 11 residues at the N-terminus and 9 residues at the C-terminus, tagless (Salmonella enterica serovar typhimurium LT2); test: SEC; analytical SEC, Superose 6 10/300, 20 mM Tris, 50 mM NaCl, pH 7.5, calibrated with molecular weight markers; oligomeric state in solution
[5] = target: AgsA:DD, double deletion AgsA lacking 11 residues at the N-terminus and 9 residues at the C-terminus, tagless (Salmonella enterica serovar typhimurium LT2); test: crystal structure; AgsA:DD; 30% polypropylene glycol 400, 0.1 M NaCl, 20 °C; space group R32, 3 dimers in the asymmetric unit, 7.5 Å
[6] = target: AgsA:DelC, AgsA lacking 9 residues at the C-terminus, tagless (Salmonella enterica serovar typhimurium LT2); test: SEC; analytical SEC, Superose 6 10/300, 20 mM Tris, 50 mM NaCl, pH 7.5, calibrated with molecular weight markers; oligomeric state in solution
[7] = target: AgsA:DelC, AgsA lacking 9 residues at the C-terminus, tagless (Salmonella enterica serovar typhimurium LT2); test: crystal structure; AgsA:DelC; 30% pentaerythritol propoxylate (5/4 PO/OH), 0.1 M MES pH 6.0, 30% glycerol, 20 °C; space group I23, a dimer in the asymmetric unit, 4.1 Å
[8] = target: AgsA:His-DD, hexa-histidine tagged double deletion construct of AgsA (Salmonella enterica serovar typhimurium LT2); test: SEC; analytical SEC, Superose 6 10/300, 20 mM Tris, 50 mM NaCl, pH 7.5, calibrated with molecular weight markers; oligomeric state in solution
[9] = target: core ACD fragment of AgsA:His-DD (degraded fragment in the crystal, residues 35-147) (Salmonella enterica serovar typhimurium LT2); test: crystal structure; AgsA:His-DD degraded in the drop; 25% pentaerythritol propoxylate (5/4 PO/OH), 0.1 M MES pH 6.0, 20% MPD, 20 °C; space group P4(1)2(1)2, 2.0 Å

“Aggregation Suppressing Protein A (AgsA) wild type, tagless (natural protein)” was tested, and the stoichiometry N [1] was 18 and 24, the stoichiometry N [2] was 18 and the stoichiometry N [3] was 18 and 24.

“AgsA:DD, double deletion AgsA lacking 11 residues at the N-terminus and 9 residues at the C-terminus, tagless (domain or fragment)” showed a stoichiometry N [4] of 18 and a stoichiometry N [5] of 18.

“AgsA:DelC, AgsA lacking 9 residues at the C-terminus, tagless (domain or fragment)” was tested, and the stoichiometry N [6] was 24 and the stoichiometry N [7] was 24.

Work on “AgsA:His-DD, hexa-histidine tagged double deletion construct of AgsA (domain or fragment)” yielded a stoichiometry N [8] of 24.

Substance “core ACD fragment of AgsA:His-DD (degraded fragment in the crystal, residues 35-147) (domain or fragment)” has a stoichiometry N [9] of 2.
